Data: patent publication US20240317834A1, “COMPOSITIONS AND METHODS FOR NEUROLOGICAL DISEASES” (CODA BIOTHERAPEUTICS, INC., priority 2020, published 2024)

Assays:
[1] = Sensitivity of parental chimera SEQ ID NO: 33 to ligands relative to wild type α7-nAChR
Lenti-X 293T cells = experiment: YFP fluorescence quenching anion reporter plate reader assay of engineered receptors stimulated with acetylcholine or a non-native ligand; type: cell-based
How it was run: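 Lenti-X 293T cells carrying a YFP anion reporter were transiently transfected with channel DNA and assayed the next day in HEPES-buffered ECS at pH 7.2. Ligand (acetylcholine or non-native ligand) was added in NaI-substituted ECS. Percent quench was the mean of the last 10 s relative to the 15 s pre-addition baseline.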

B1: CODA71: parental chimeric LGIC: human α7-nAChR ligand binding domain with GlyRα1 Cys-loop fused to human GlyRα1 ion pore domain (protein)
chain: MRCSPGGVWLALAASLLHVSLQGEFQRKLYKELVKNYNPLERPVANDSQPLTVYFSLSLLQIMDVDEKNQVLTTNIWLQMSWTDHYLQWNVSEYPGVKTVRFPDGQIWKPDILLYNSADERFDATFHTNVLVNSSGHCQYLPPGIFKSSCPMDLKNFPMDVQTCKLKFGSWSYGGWSLDLQMQEADISGYIPNGEWDLVGIPGKRSERFYECCKEPYPDVTFTVTMRRRMGYYLIQMYIPSLLIVILSWISFWINMDAAPARVGLGITTVLTMTTQSSGSRASLPKVSYVKAIDIWMAVCLLFVFSALLEYAAVNFVSRQHKELLRFRRKRRHHKSPMLNLFQEDEAGEGRFNFSAYGMGPACLQAKDGISVKGANNSNTTNPPPAPSKSPEEMRKLFIQRAKKIDKISRIGFPMAFLIFNMFYWIIYKIVRREDVHNQ
modifications: synthetic sequence of chimeric LGIC
- sensitivity to ABT-126 compared with wild type α7-nAChR ([1]; ligand ABT-126): approximately as sensitive
- fold more sensitive to AZD-0328 than wild type ([1]; ligand AZD-0328): approximately 3 fold
- fold more sensitive to Facinicline/RG3487 than wild type ([1]; ligand Facinicline/RG3487): ~10 fold
- sensitivity to TC-6987 compared with wild type α7-nAChR ([1]; ligand TC-6987): approximately as sensitive
- type of agonist activity of TC-6987 on the receptor ([1]; ligand TC-6987, similar to wild type): partial agonist activity
- sensitivity to acetylcholine compared with wild type α7-nAChR ([1]; ligand acetylcholine): approximately as sensitive
- fold less sensitive to nicotine than wild type ([1]; ligand nicotine): ~2 fold
- YFP fluorescence quenching using CNL001 (Lenti-X 293T cells; 1 nM CNL001, first column): 3.727%
- YFP fluorescence quenching using CNL001 (Lenti-X 293T cells; 1 nM CNL001, second column): 20.231%
- YFP fluorescence quenching using TC-5619/Bradanicline (Lenti-X 293T cells; 1 nM brd): 9.41%
- YFP fluorescence quenching using TC-5619/Bradanicline (Lenti-X 293T cells; 3 nM brd): 44.38%
- YFP fluorescence quenching using Varenicline (Lenti-X 293T cells; 3 nM var, first column): −2.36
- YFP fluorescence quenching using Varenicline (Lenti-X 293T cells; 3 nM var, second column): −3.522
- YFP fluorescence quenching using CNL001 (Lenti-X 293T cells; 10 nM CNL001, first column): 81.096%
- YFP fluorescence quenching using CNL001 (Lenti-X 293T cells; 10 nM CNL001, second column): 82.368%
- YFP fluorescence quenching using TC-5619/Bradanicline (Lenti-X 293T cells; 10 nM brd): 76.61%
- YFP fluorescence quenching using TC-5619/Bradanicline (Lenti-X 293T cells; 30 nM brd): 70.23%
- YFP fluorescence quenching using Facinicline (Lenti-X 293T cells; 30 nM fac): 53.42
- YFP fluorescence quenching using Varenicline (Lenti-X 293T cells; 30 nM var, first column): −4.255
- YFP fluorescence quenching using Varenicline (Lenti-X 293T cells; 30 nM var, second column): −3.636
- YFP fluorescence quenching using CNL001 (Lenti-X 293T cells; 50 nM CNL001, first column): 83.62%
- YFP fluorescence quenching using CNL001 (Lenti-X 293T cells; 50 nM CNL001, second column): 84.482%
- YFP fluorescence quenching using ABT-126 (Lenti-X 293T cells; 50 nM abt): −1.98%
- YFP fluorescence quenching using CNL001 (Lenti-X 293T cells; 100 nM CNL001, first column): 84.297%
- YFP fluorescence quenching using CNL001 (Lenti-X 293T cells; 100 nM CNL001, second column): 85.368%
- YFP fluorescence quenching using CNL002 (Lenti-X 293T cells; 100 nM CNL002): 49.61%
- YFP fluorescence quenching using ABT-126 (Lenti-X 293T cells; 100 nM abt): 24.27%
- YFP fluorescence quenching using AZD-0328 (Lenti-X 293T cells; 100 nM azd0328): 73.59%
- YFP fluorescence quenching using TC-5619/Bradanicline (Lenti-X 293T cells; 100 nM brd): 78.62%
- YFP fluorescence quenching using Facinicline (Lenti-X 293T cells; 100 nM fac): 83.6
- YFP fluorescence quenching using ABT-126 (Lenti-X 293T cells; 300 nM abt): 56.8%
- YFP fluorescence quenching using AZD-0328 (Lenti-X 293T cells; 300 nM azd0328): 78.09%
- YFP fluorescence quenching using TC-5619/Bradanicline (Lenti-X 293T cells; 300 nM brd): 75.51%
- YFP fluorescence quenching using Facinicline (Lenti-X 293T cells; 300 nM fac): 77.44
- YFP fluorescence quenching using Varenicline (Lenti-X 293T cells; 300 nM var, first column): 46.195
- YFP fluorescence quenching using Varenicline (Lenti-X 293T cells; 300 nM var, second column): 45.522
- YFP fluorescence quenching using ABT-126 (Lenti-X 293T cells; 500 nM abt): 76.28%
- YFP fluorescence quenching using Varenicline (Lenti-X 293T cells; 500 nM var, first column): 69.253
- YFP fluorescence quenching using Varenicline (Lenti-X 293T cells; 500 nM var, second column): 71.705
- YFP fluorescence quenching using CNL001 (Lenti-X 293T cells; 1 uM CNL001, first column): 85.647%
- YFP fluorescence quenching using CNL001 (Lenti-X 293T cells; 1 uM CNL001, second column): 86.358%
- YFP fluorescence quenching using CNL002 (Lenti-X 293T cells; 1 uM CNL002): 74.15%
- YFP fluorescence quenching using ABT-126 (Lenti-X 293T cells; 1 uM abt): 73.16%
- YFP fluorescence quenching using TC-6987 (Lenti-X 293T cells; 1 uM tc6987): 31.56
- YFP fluorescence quenching using Varenicline (Lenti-X 293T cells; 1 uM var, first column): 79.254
- YFP fluorescence quenching using Varenicline (Lenti-X 293T cells; 1 uM var, second column): 79.244
- YFP fluorescence quenching using ABT-126 (Lenti-X 293T cells; 3 uM abt): 70.98%
- YFP fluorescence quenching using TC-6987 (Lenti-X 293T cells; 3 uM tc6987): 31.82
- YFP fluorescence quenching using TC-6987 (Lenti-X 293T cells; 5 uM tc6987): 30.75
- YFP fluorescence quenching using ABT-126 (Lenti-X 293T cells; 10 uM abt): 72.62%
- YFP fluorescence quenching using TC-6987 (Lenti-X 293T cells; 10 uM tc6987): 56.68
- YFP fluorescence quenching using CNL002 (Lenti-X 293T cells; 30 uM CNL002): 75.21%
- YFP fluorescence quenching using ABT-126 (Lenti-X 293T cells; 30 uM abt): 77.49%
- YFP fluorescence quenching using AZD-0328 (Lenti-X 293T cells; 30 uM azd0328): 79.05%
- YFP fluorescence quenching using Facinicline (Lenti-X 293T cells; 30 uM fac): 79.62
- YFP fluorescence quenching using TC-6987 (Lenti-X 293T cells; 30 uM tc6987): 51.46
- YFP fluorescence quenching using ABT-126 (Lenti-X 293T cells; 50 uM abt): 77.96%
- YFP fluorescence quenching using TC-6987 (Lenti-X 293T cells; 50 uM tc6987): 61.26
- YFP fluorescence quenching using ABT-126 (Lenti-X 293T cells; 100 uM abt): 77.81%
- YFP fluorescence quenching using TC-6987 (Lenti-X 293T cells; 100 uM tc6987): 43.21
- YFP fluorescence quenching using TC-6987 (Lenti-X 293T cells; 300 uM tc6987): 7.79
- YFP fluorescence quenching using TC-6987 (Lenti-X 293T cells; 500 uM tc6987): 51.58
- percent quench of YFP fluorescence, 30 nM TC-6683 (Lenti-X 293T cells; TC-6683 30 nM): −14.43%
- percent quench of YFP fluorescence, 300 nM TC-6683 (Lenti-X 293T cells; TC-6683 300 nM): −13.08%
- percent quench of YFP fluorescence, 3 uM TC-6683 (Lenti-X 293T cells; TC-6683 3 uM): −13.71%
- percent quench of YFP fluorescence, 30 uM TC-6683 (Lenti-X 293T cells; TC-6683 30 uM): −14.02%
- percent quench of YFP fluorescence, 100 uM TC-6683 (Lenti-X 293T cells; TC-6683 100 uM): −8.77%
- percent quench of YFP fluorescence, 10 uM ach (Lenti-X 293T cells; acetylcholine 10 uM): 15.61%
- percent quench of YFP fluorescence, 30 uM ach (Lenti-X 293T cells; acetylcholine 30 uM): 63.31%
- percent quench of YFP fluorescence, 50 uM ach (Lenti-X 293T cells; acetylcholine 50 uM): 73.16%
- percent quench of YFP fluorescence, 100 uM ach (Lenti-X 293T cells; acetylcholine 100 uM): 74.94%
- percent quench of YFP fluorescence, 300 uM ach (Lenti-X 293T cells; acetylcholine 300 uM): 65.94%
- percent quench of YFP fluorescence, 500 uM ach (Lenti-X 293T cells; acetylcholine 500 uM): 62.78%
- percent quench of YFP fluorescence, 1 mM ach (Lenti-X 293T cells; acetylcholine 1 mM): 74.24%
- percent quench of YFP fluorescence, 3 mM ach (Lenti-X 293T cells; acetylcholine 3 mM): 76.27%
- percent quench of YFP fluorescence, 5 mM ach (Lenti-X 293T cells; acetylcholine 5 mM): 77.15%
- percent quench of YFP fluorescence, 10 mM ach (Lenti-X 293T cells; acetylcholine 10 mM): 77.96%
